1 sequence from patent publication US5625031A, “Peptide inhibitors of the p33^cdk2 and p34^cdc2 cell cycle regulatory kinases and human papillomavirus E7 oncoprotein” (Bristol-Myers Squibb Company, priority 1994, dated 1997) can be followed below.

“Also recorded” adds a separate entry of the source.

One test has as its target T1, HPV18-E7 protein (Human papillomavirus type 18, UniProt P06788).
T1 construct: made in house
Put plainly: biochemical. It is filed as binding. Particulars: E7 type and method not stated. The protocol: The association of bacterially expressed HPV18-E7 protein with the p107 30mer peptide was analyzed using an ELISA assay. In the experiment depicted in FIG. 3A, a 96-well cluster plate was coated with p107 30mer peptide and incubated with increasing concentration of a MBP-E7 fusion protein or the MBP protein as a control. […] In the experiment depicted in FIG. 3B, MBP-E7 fusion protein (100 ng) was incubated with a p107 30mer peptide-coated plate in the presence of increasing concentrations of free p107 9mer peptide.

In the next test the target is T2, E7-Rb complex (Human papillomavirus type 18, UniProt P06788).
T2 construct: made in house; host or cells: bacteria (MBP-E7); baculovirus system (Rb)
Put plainly: ELISA assay of competition for E7-Rb complex formation. Particulars: MBP-E7 coated plate, 100 ng Rb, increasing peptide concentrations. Format: binding. As for the experimental part: To examine the effect of p107 peptide binding upon the E7-Rb interaction, an ELISA assay was used to monitor E7-Rb complex formation. 96-well cluster plates were coated with either MBP-E7 protein (O) or MBP alone as a control (.circle-solid.). The plates were incubated with increasing concentrations of baculovirus expressed Rb which was detected with monoclonal antibody αRb349 (Pharmingen, San Diego Calif.) (FIG. 4A). In a separate experiment, 96-well cluster plates were coated with MBP-E7 protein and incubated with 100 ng Rb in the presence of increasing concentrations of p107 9mer peptide (FIG. 4B). Binding is quantitated as an increase in optical density at 405 nm. […] A corresponding peptide from Rb protein (sequence MCSMYGICK [SEQ ID NO: 2]) also binds to the E7 oncoprotein and competes for the E7-Rb interaction.

T2 sequence (P06788 whole entry, one chain of several): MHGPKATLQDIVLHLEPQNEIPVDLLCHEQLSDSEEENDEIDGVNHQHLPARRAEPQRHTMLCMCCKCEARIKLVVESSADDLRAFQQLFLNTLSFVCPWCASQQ
T1 sequence (P06788 whole entry): as the sequence (P06788 whole entry, one chain of several) above

As for “MCSMYGICK [nine amino acid peptide derived from Rb]”, in the test with HPV18-E7 protein, the “binding to the E7 oncoprotein” value is listed as “binds”. In addition, the “competition for E7 association with Rb” value in the test with E7-Rb complex is on record as “competes; also recorded: inhibits E7 binding to Rb”.
